Experimental data taken from the DeepSol protein solubility set.

Assay: soluble on expression in E. coli; label from the status in PepcDB or PDB records

Sequence	soluble on expression in E. coli
MGSDKIHHHHHHMKKPSQFDAIVVGAGPSGNAAAYTMARAGLKVLQIERGEYPGSKNVQGAILYAKALEEIIPDFRDDAPLERHIIEQRIWMLDDTSFVGTHMRSEEYNKPPYNRYTIIRAQFDKWFSSKVREAGALLICETTVKQLIMDGDQVVGVQCDREHGDVYADVVVLADGVNSTLARKAGFHGEIEAGNVALAVKEILFMPEETIRQRFNIGEDDGVVIEMVGRITDGMTGTGFLYTNKESLTIGVGCMLGDFKKNPNRTSPYVLLEKMKQHPSIAPLIAGGEMKEYCAHLIPEGGFHAIPRVYGNGWMIVGDSGGFVNAAHREGSNLAMTTGRLAAETVIHAKAAGLGYRAATLKAYKAALDQSFVMKDLHKYRDMPAVLHQNPQFFTTYPDLVARAARTMLTVDGKDKKSKEREIFSSFRKARSLAGMVGDAYKLLRAFR	not soluble
MGSDKIHHHHHHMKKSKHISQSELESYLWGAATLLRGYIDAGDYKQFIFPLLFYKRLCDVYDEELADALEESGGDQEYAALPEQHRFQIPEDAHWKATRTKVKNVGKAIQDALRAIETANPDTLYGVFGDAQWTNKDRLPDRMLRELIEHFSSQTLSLSNCPEDELGVGYEFLIKKFADDSGHTAAEFYTNRTVVHLMTEMLEPKPGESIYDPTCGSAGMLLSAVAHLKRQNKEWRNLRLFGQERNLLTSAIGRMNLFLHGIEDFRIVRGDTLANPAFVEGDRLMQFDVVLANPPYSIKQWDRDAWSADPWGRNIYGTPPQGRADYAFWQHIIKSMKAKSGRCAILFPHGVLFRNEESAMREKLVAHDVVECVLGLGPNLFYNSPMEACVVICRMNKPKERRNKVLFINAVNEVTRERAQSFLTDDHIQRIVAAYQAFGDEDGFARVVGNDEIREKASNLSIPLYVRAENGNGNGNGSTETVSLKQAIANWQESSMALRESMDGLLSSLEGGLHGS	not soluble
MGSDKIHHHHHHMKKTYLFSPGPVMVTDKVRNSLLHYDICHRGNEFMNLFKDTQQKINKLYNATSNYYSLIVSGSGTSVNECVLSSIFDKEDAVLLVSNGVFGERLEEILSTYNVKTYKPNFEWAEYPDLDILEKYIIENSDIKVIAMVFHETSSGMINPVPELGKLAKKYNKIFFVDAISASAGEYIDVEEFNIDIITGVGGKALGAFPGSAYLCAKESILQNIKENQCKNVYLNLYKHYKVAKSSSQTPNTPNVTLIFALNEALTEFLEDDSKIERYKECSAILRNGMEELGLTFLLPDKYMSNTVTSVFLPKEINVNEFILGLERESGYVVYPGKGKFLDANIFQVANMGEIYPEDCYKFLDILKSKLEIKKVI	not soluble
MGSDKIHHHHHHMKLITVSGPPSSGKTSLIIKTVESLKAQNIKVGIVKFDCLYTDDDILYEKAGILVKKGLSGSVCPDHFFASNIEEVVQWGKTNNLDLLITESAGLCNRCSPYLKDIKAVCVIDNLSGINTPKKIGPMLKLADIVVITKGDIVSQAEREVFASRVQTVNPKAAIIHINGLTGQGTYEFGSLIMDKNEEIDTVIERKLRFPLPSAVCSYCLGETRIGNNYQLGNIRKINFEEQ	not soluble
MGSDKIHHHHHHMKLLYFKEHLSCINYQINVNTGFVYYNLEKDSVSKIDNSASPCILFLLDGEVSIDSGEYQNVHIEKDKMVLIPQHVDNKIEVIYDAKCLLLFWNKDIRVCDKVYMNSLSSYKERKKEMCVLPIRDPLQAVLNSVVAYLYAKMQCKHMHLIKQQEVLLVLRGYYTKKELFTFFSSILGNTGHFEDFVMNNYRKVKSVKEFAGLYCTSERSFNRKFQNCFKESPYQWMQKKKAELIREKISESDTPFQEIAMDFDFNSQAHFTSYCKRLFGMTPSKLRTESKKVAPDLEY	not soluble
MGSDKIHHHHHHMKLSYVTDSLGHLPFEDMLNFAAKLGIDTLEMTTGGWSPAPHLNLDELLQSSEKRKEFSQALEKRNMTLCALNCSGNPLDPGELGKSHRDITDKTMELAGLLGVKKVIMMSGLPAGGPDDKVPNWITYTVSWPPVLKDILNYQWEDVAIPYWKKLVKKAEACGVGKIALENFSSQLVYNPETLFRLRNAVGPMVGLNLDPSHLLWMGADPIIAARELGSAIHHVHGKDVRIERYLSAVNGLLETKEVTDPANRAWNYVAVGCGQDLQWWKEFFSVVKMMGYEGEVSLEMEDLTMSPEAGIRTSVEALKQTISQ	not soluble
MGSDKIHHHHHHMKMNWTGAAHQLNKQGKAYVIATIVGVTGSTPRNSGTKMVITHDDIFDTIGGGHLEHKVIKHAHQLLMAGDDCQQLEHFQLGAQLGQCCGGNASVLFESFSASGVNIMLFGAGHVGKALMPILAGLPCSITWVDSRADQFPDDAGNYHNVTTLVSENPAEEVALMPTNSYYIVMTHNHQLDFEISHNTLKRADFAYLGLIASDTKWRRFQQRFQHRDIAKSLVEKMNCPIGLPQVQGKLPMEVAVSVAGEIIQLYQAELASQALANPSANKQKDAKPQSTKQGIAWQELKSLMTEEVS	not soluble
MGSDKIHHHHHHMKNFVLDTNVLLYDPQAIFKFEENNIIIPITVIEEVDRFKKDMNETGRNARQVSRYLDDMRKIGSLSSGITLETGGMLRVEMYEEKIMKRLPPELREERGDNRILAVAVKILEENGGAPVVFVTKDTNLRIKADAIGLKAEDYESDKVDIEELYPGFTEIDVAADTVDRFHGQGWVELPGQTFFPNQCVTLRDEANPSHTALGKYRVGDGKITPLIKTGKEGVWSIFPRNREQAFAFDLLLDDSIKLVTLVGKAGTGKTLLAIAAGLHKTAEENVFNRLLVSRPVFPMGRDLGFLPGDIEEKLAPWMQPIFDNVELLLSGHEAEKRHSKGYKELMAMGIMEIEPLTYIRGRSIPNQFMIVDEAQNLTPHEIKTIITRAGEGTKIVLTGDPYQIDNPYVDASSNGLTYVVERFKEQAIAGHVTMTKGERSDLAELAANLL	not soluble
MGSDKIHHHHHHMKPDLSSHLVLGERPDGRTLITARWVLAWRDGGHALIPDGEIVVDRNEVLYAGPRFEGDVARRIDFGTALVSPGLIDLDALSDLDTYLLVHDNQPGWAKGRIWPRSYVESGPYEMYSAEELAFQKRFAFGLLLLNGITTAAPIASLYYRQWAETVAEFEAAADAAGDLGLRVFLSPAYRSGGMILEGPGRIEPAFDEPRGLQGLADAIDFIERNHGRHNGLVNGMLAPDRIETCTLHLLQRTMAAARDLDCRVRIHMAQGNLELETMRRLHGVSAPQWLADHGLMSERLIAPHGTYASPQDLQLYAQHGVSIAHSPLVSARMGSILNSFAACRSLGINIGMATDTAPPDMLMNLLVGLIACRIGEKTSDAVFSKDLFDAATLGGAKALGRRDLGRLAAGAKADIAVFRLDDVHMTPSVDPVTTLVVGGSGKVTQAVFVDGRLSMLDGKVAGIDMIAAREQAQQQYDGLIAKYPDRSWRHPPVGKIFSPSYPVWKIQ	not soluble
MGSDKIHHHHHHMKQILFMDTTLRDGEQSPGVNLNEQEKLQIARQLERLGIHVMEAGFAAASEGDFQSVKRIANTIQNATVMSLARAKESDIRRAYEAVKGAVSPRLHVFLATSDIHMKYKLCMSKEDVLDSIHRSVTLGKSLFPTVQFSAEDATRTARDFLAEAVEVAIRAGANVINIPDTVGYTNPEEYYSLFKYLQESVPSYEKAIFSCHCHDDLGMAVANSLAAVEGGALQVEGTINGIGERAGNAALEEVAVALHIRKDFYQAEPSMTLKEIKATSTLVSRLTGMVVPKNKAIVGANAFAHESGIHQDGVLKEVTTYEIIEPELVGESQNLFVLGKHSGRHAFTEKMKELGYEFTTEERDAVFEAFKKLADRKKEITEEDLRALMLGEAAFAAQQYNITQLQVHFVSNSTQCATVVLKDEEGNVFEDAATGSGSIEAIYNAIQRILGLECELADYRIQSITQGQDALAHVHVELKEGTHQVSGFGVAQDVLEASARAYVHAAGKLKSFIQLVK	not soluble
MGSDKIHHHHHHMKQLTMPLTALALFTLGGCVTNSDLDVVRRDLDELKNRQFQVEKEVGGVRTEATARIESSFKDLDTERAGVRKGLADLQAAMDGIKVDMQVLAGKVDDVGLAAKKPGDDLILLREDLERRLTAFDQRLAKAETGIEALQKKVAEQAPSPKETEKPTPEALYQKGLDAYRAGNYGVARESFTRFLEQHPKHELAANARYWTGETYYSEKKFEQAILEFQEVIKNYPGKEKVPAAMLKQAAAFSEIGDAKSARFVLRKLADDYPSSEEAKRAKDRLKELK	not soluble
MGSDKIHHHHHHMKQPLAHRMRPTNIQEIIGQQHLVGEGKILWRMVQANHFQSMILYGPPGTGKTSIASAIAGSTGTPFRLLNAVTHNKKDMEVVVQEAKMHRHLVLILDEVHRLDKAKQDFLLPHLESGLLTLIGATTSNPFHAINSAIRSRCQIFELHALTEDDLLIGLKRALEDKEKGLGEYDVTVTPEALHHFANASGGDMRSAYNALELAVLSSFTTDDKAAEITLEIAEECLQKKSFVHDKGGDAHYDVLSAFQKSVRGSDVNAALHYLARLIEAGDLQSIGRRLLIMAYEDIGLASPQAGPRTLAAIESAERVGFPEARIPLANAVIELCLSPKSNSAYKALDAALHDLRNGQTGDIPSHLKDSHYKGAEALGRGIGYLYPHDHPNGWVQQQYLPDKIKNKQYYKPKMTGKFEQALSTVYERLQSSNKTKNKG	not soluble
MGSDKIHHHHHHMKRIRNISVVGMGAVGCAYGRKLYKLNPNNFKIIADDKRKEKLTKNGFLINGEKYDFKCVSPNENLGKDDLIIIAVKYNQLEEAIEEIRNYVGENTIILSFLNGIKSEEEIGKVYGMDKILYSYCVLESTRKGSEVYVSDGYKIVFGQKESDNKYEKIKAVRELFDDAEIDYEIPVDIIHSMWSKFMFNVGINPVSAILKANYGMLQKNKYARETMVSAMMEVINISQKASVNLKIEEINHWLAVLDECELHGKTSMCQDILMGRKTEIDMLSGEVCALGEKYGVDTPVNRTLFNMVKSIE	not soluble
MGSDKIHHHHHHMKRISQQELESYLWGAAVLLRGLIDAGDYKQFIFPLLFYKRVSDVWDEEYQAALANSGGDLSYAQFAENHRFQIPAGAHWNDVRQTPKNVGAAIQKAMRAIESANPDLLDGIFGDAPWTNRERLPDETLKNLIEHFSTQTLSVANVPEDELGNAYEYLIKKFADDSGHTAAEFYTNRTVVHLMTQLLAPQAGESIYDPTCGTGGMLISALDEVKRAGGEYRTLKLYGQERNLITSSIARMNLFLHGVEDFEIIRGDTLAEPKHIEGDRLRQFDVILANPPYSIKQWNREAWSSDKWGRNSLGTPPQGRADYAFQQHILTSLTAKGRCAVLWPHGVLFRNEEQSMRAKMVEQDWVEAVIGLGPNLFYNSPMESCIVICNRKKAAARKGKVIFIDAVNEVARERAQSFLKPEHQQRILTAYKTFADVPGFAKVATLAEIGANAGNLSIPLYVKRIAAAIATDSNDDAVSLRSAWDQWQADGRAFWQQMDALVETLDGLVAQEAADA	not soluble
MGSDKIHHHHHHMKRLRVTLAQLNPTLGDFEGNLKKAIEALRVAEDRGSDLLVFPELFLPGYPPEDLMLRLSFLRENRKYLQKFAQHTRNLGVTVLMGFIDSDEDAYNAAAVVKDGEILGVYRKISLPNYGVFDERRYFKPGEELLVVKIGNIKVGVTICEDIWNPVEPSASLSLGEGVHLIANLSASPYHVGKPVLRKDYLSMKAYDYHVAMAYCNMVGGQDELVFDGGSMVVDASGEVINYGKLFEEEIITVDLDLDENLRVSLVDPRRRYMKTQNYPVKTVEAGNLREKSGHFEPVVNPLPVREEEMFRALITGLRDYVRKNGFEKVVIGLSGGMDSSLVAVIATEALGKENVKGVLMPSMYTSKESIEDAQTLAKNLGIETFIIPITDVFHSYLETLKGVFAGREPDITEENLQARIRGNYLMALSNKFGWLVLTTGNKSEMATGYATLYGDMAGGFAVIKDVYKTDVYRIGRWYNSWRGKEIIPENIFVKPPTAELRPGQTDQEKLPPYEVLDEILRLYIEEGLDPEEIASKGFDRKTVLDVTEMIRKNEYKRKQAAIGVKISTRAFGKDWRMPITNRFKEPL	not soluble
